B1: 5KPH (parent)
chain: EEKRQVKQVAKEKLLEQSPNSKVQVRRVQKQGNTIRVELELRTNGKKENYTVEVERQGNTWTVKRITRT

Variants of: B1
Assay: folding stability dG (cDNA display proteolysis); higher = more stable
Conditions: PBS, room temperature

Variant | folding stability dG
EEKRQVKQVAKEKLLEQSPNSKVQVRRVQKQGNTIRVELELRTNGKKENYYVEVERQGNTWTVKRITRT | 3.75 kcal/mol
EEKRQVKQVAKEKLLEQSPNSKVQVRRVQKQGNTIRVELELRTNGKKENYSVEVERQGNTWTVKRITRT | 3.75 kcal/mol
EEKRQVKQVAKEKLLEQSPNSKVQVRRVQKQGNTIRVELELRTNGKKENYGVEVERQGNTWTVKRITRT | 2.5 kcal/mol
EEKRQVKQVAKEKLLEQSPNSKVQVRRVQKQGNTIRVELELRTNGKKENYKVEVERQGNTWTVKRITRT | 3 kcal/mol
EEKRQVKQVAKEKLLEQSPNSKVQVRRVQKQGNTIRVELELRTNGKKENYQVEVERQGNTWTVKRITRT | 3.56 kcal/mol
EEKRQVKQVAKEKLLEQSPNSKVQVRRVQKQGNTIRVELELRTNGKKENYAVEVERQGNTWTVKRITRT | 3.6 kcal/mol
EEKRQVKQVAKEKLLEQSPNSKVQVRRVQKQGNTIRVELELRTNGKKENYRVEVERQGNTWTVKRITRT | 3.33 kcal/mol
EEKRQVKQVAKEKLLEQSPNSKVQVRRVQKQGNTIRVELELRTNGKKENYIVEVERQGNTWTVKRITRT | 4.13 kcal/mol
EEKRQVKQVAKEKLLEQSPNSKVQVRRVQKQGNTIRVELELRTNGKKENYDVEVERQGNTWTVKRITRT | 3.01 kcal/mol
EEKRQVKQVAKEKLLEQSPNSKVQVRRVQKQGNTIRVELELRTNGKKENYLVEVERQGNTWTVKRITRT | 3.99 kcal/mol
EEKRQVKQVAKEKLLEQSPNSKVQVRRVQKQGNTIRVELELRTNGKKENYNVEVERQGNTWTVKRITRT | 3.09 kcal/mol
EEKRQVKQVAKEKLLEQSPNSKVQVRRVQKQGNTIRVELELRTNGKKENYEVEVERQGNTWTVKRITRT | 3.87 kcal/mol
EEKRQVKQVAKEKLLEQSPNSKVQVRRVQKQGNTIRVELELRTNGKKENYFVEVERQGNTWTVKRITRT | 3.66 kcal/mol
EEKRQVKQVAKEKLLEQSPNSKVQVRRVQKQGNTIRVELELRTNGKKENYHVEVERQGNTWTVKRITRT | 3.24 kcal/mol
EEKRQVKQVAKEKLLEQSPNSKVQVRRVQKQGNTIRVELELRTNGKKENYMVEVERQGNTWTVKRITRT | 3.95 kcal/mol
EEKRQVKQVAKEKLLEQSPNSKVQVRRVQKQGNTIRVELELRTNGKKENYWVEVERQGNTWTVKRITRT | 3.98 kcal/mol
EEKRQVKQVAKEKLLEQSPNSKVQVRRVQKQGNTIRVELELRTNGKKENYVVEVERQGNTWTVKRITRT | 4.22 kcal/mol
EEKRQVKQVAKEKLLEQSPNSKVQVRRVQKQGNTIRVELELRTNGKKENYCVEVERQGNTWTVKRITRT | 3.59 kcal/mol
EEKRQVKQVAKEKLLEQSPNSKVQVRRVQKQGNTIRVELELRTNGKKENYTMEVERQGNTWTVKRITRT | 3.22 kcal/mol
EEKRQVKQVAKEKLLEQSPNSKVQVRRVQKQGNTIRVELELRTNGKKENYTFEVERQGNTWTVKRITRT | 2.52 kcal/mol
EEKRQVKQVAKEKLLEQSPNSKVQVRRVQKQGNTIRVELELRTNGKKENYTAEVERQGNTWTVKRITRT | 3.31 kcal/mol
EEKRQVKQVAKEKLLEQSPNSKVQVRRVQKQGNTIRVELELRTNGKKENYTSEVERQGNTWTVKRITRT | 1.21 kcal/mol
EEKRQVKQVAKEKLLEQSPNSKVQVRRVQKQGNTIRVELELRTNGKKENYTGEVERQGNTWTVKRITRT | 0.851 kcal/mol
EEKRQVKQVAKEKLLEQSPNSKVQVRRVQKQGNTIRVELELRTNGKKENYTLEVERQGNTWTVKRITRT | 3.48 kcal/mol
EEKRQVKQVAKEKLLEQSPNSKVQVRRVQKQGNTIRVELELRTNGKKENYTCEVERQGNTWTVKRITRT | 2.92 kcal/mol
EEKRQVKQVAKEKLLEQSPNSKVQVRRVQKQGNTIRVELELRTNGKKENYTIEVERQGNTWTVKRITRT | 3.65 kcal/mol

Variant | folding stability dG
EEKRQVKQVAKEKLLEQSPNSKVQVRRVQKQGNTIRVELELRTNGKKENYTTEVERQGNTWTVKRITRT | 1.61 kcal/mol
EEKRQVKQVAKEKLLEQSPNSKVQVRRVQKQGNTIRVELELRTNGKKENYTWEVERQGNTWTVKRITRT | 1.58 kcal/mol
EEKRQVKQVAKEKLLEQSPNSKVQVRRVQKQGNTIRVELELRTNGKKENYTQEVERQGNTWTVKRITRT | -0.464 kcal/mol
EEKRQVKQVAKEKLLEQSPNSKVQVRRVQKQGNTIRVELELRTNGKKEVYTVEVERQGNTWTVKRITRT | 4.07 kcal/mol
EEKRQVKQVAKEKLLEQSPNSKVQVRRVQKQGNTIRVELELRTNGKKETYTVEVERQGNTWTVKRITRT | 4.14 kcal/mol
EEKRQVKQVAKEKLLEQSPNSKVQVRRVQKQGNTIRVELELRTNGKKEGYTVEVERQGNTWTVKRITRT | 3.81 kcal/mol
EEKRQVKQVAKEKLLEQSPNSKVQVRRVQKQGNTIRVELELRTNGKKEHYTVEVERQGNTWTVKRITRT | 4.04 kcal/mol
EEKRQVKQVAKEKLLEQSPNSKVQVRRVQKQGNTIRVELELRTNGKKEAYTVEVERQGNTWTVKRITRT | 3.73 kcal/mol
EEKRQVKQVAKEKLLEQSPNSKVQVRRVQKQGNTIRVELELRTNGKKERYTVEVERQGNTWTVKRITRT | 4.09 kcal/mol
EEKRQVKQVAKEKLLEQSPNSKVQVRRVQKQGNTIRVELELRTNGKKEIYTVEVERQGNTWTVKRITRT | 4.22 kcal/mol
EEKRQVKQVAKEKLLEQSPNSKVQVRRVQKQGNTIRVELELRTNGKKEPYTVEVERQGNTWTVKRITRT | 2.7 kcal/mol
EEKRQVKQVAKEKLLEQSPNSKVQVRRVQKQGNTIRVELELRTNGKKESYTVEVERQGNTWTVKRITRT | 3.86 kcal/mol
EEKRQVKQVAKEKLLEQSPNSKVQVRRVQKQGNTIRVELELRTNGKKECYTVEVERQGNTWTVKRITRT | 3.73 kcal/mol
EEKRQVKQVAKEKLLEQSPNSKVQVRRVQKQGNTIRVELELRTNGKKEWYTVEVERQGNTWTVKRITRT | 4.2 kcal/mol
EEKRQVKQVAKEKLLEQSPNSKVQVRRVQKQGNTIRVELELRTNGKKEKYTVEVERQGNTWTVKRITRT | 4.23 kcal/mol
EEKRQVKQVAKEKLLEQSPNSKVQVRRVQKQGNTIRVELELRTNGKKELYTVEVERQGNTWTVKRITRT | 4.4 kcal/mol
EEKRQVKQVAKEKLLEQSPNSKVQVRRVQKQGNTIRVELELRTNGKKEFYTVEVERQGNTWTVKRITRT | 4.14 kcal/mol
EEKRQVKQVAKEKLLEQSPNSKVQVRRVQKQGNTIRVELELRTNGKKEQYTVEVERQGNTWTVKRITRT | 3.93 kcal/mol
EEKRQVKQVAKEKLLEQSPNSKVQVRRVQKQGNTIRVELELRTNGKKEEYTVEVERQGNTWTVKRITRT | 3.61 kcal/mol
EEKRQVKQVAKEKLLEQSPNSKVQVRRVQKQGNTIRVELELRTNGKKEDYTVEVERQGNTWTVKRITRT | 3.57 kcal/mol
EEKRQVKQVAKEKLLEQSPNSKVQVRRVQKQGNTIRVELELRTNGKKEMYTVEVERQGNTWTVKRITRT | 4.18 kcal/mol
EEKRQVKQVAKEKLLEQSPNSKVQVRRVQKQGNTIRVELELRTNGKKEYYTVEVERQGNTWTVKRITRT | 4.3 kcal/mol
EEKRQVKQVAKEKLLEQSPNSKVQVRRVQKQGNTIRVELELRTNGKKWNYTVEVERQGNTWTVKRITRT | 3.87 kcal/mol
EEKRQVKQVAKEKLLEQSPNSKVQVRRVQKQGNTIRVELELRTNGKKTNYTVEVERQGNTWTVKRITRT | 3.65 kcal/mol
EEKRQVKQVAKEKLLEQSPNSKVQVRRVQKQGNTIRVELELRTNGKKRNYTVEVERQGNTWTVKRITRT | 3.35 kcal/mol
EEKRQVKQVAKEKLLEQSPNSKVQVRRVQKQGNTIRVELELRTNGKKQNYTVEVERQGNTWTVKRITRT | 3.7 kcal/mol

Variant | folding stability dG
EEKRQVKQVAKEKLLEQSPNSKVQVRRVQKQGNTIRVELELRTNGKKKNYTVEVERQGNTWTVKRITRT | 3.22 kcal/mol
EEKRQVKQVAKEKLLEQSPNSKVQVRRVQKQGNTIRVELELRTNGKKPNYTVEVERQGNTWTVKRITRT | 1.23 kcal/mol
EEKRQVKQVAKEKLLEQSPNSKVQVRRVQKQGNTIRVELELRTNGKKMNYTVEVERQGNTWTVKRITRT | 3.55 kcal/mol
EEKRQVKQVAKEKLLEQSPNSKVQVRRVQKQGNTIRVELELRTNGKKVNYTVEVERQGNTWTVKRITRT | 3.63 kcal/mol
EEKRQVKQVAKEKLLEQSPNSKVQVRRVQKQGNTIRVELELRTNGKKSNYTVEVERQGNTWTVKRITRT | 3.57 kcal/mol
EEKRQVKQVAKEKLLEQSPNSKVQVRRVQKQGNTIRVELELRTNGKKLNYTVEVERQGNTWTVKRITRT | 3.39 kcal/mol
EEKRQVKQVAKEKLLEQSPNSKVQVRRVQKQGNTIRVELELRTNGKKYNYTVEVERQGNTWTVKRITRT | 3.75 kcal/mol
EEKRQVKQVAKEKLLEQSPNSKVQVRRVQKQGNTIRVELELRTNGKKNNYTVEVERQGNTWTVKRITRT | 3.08 kcal/mol
EEKRQVKQVAKEKLLEQSPNSKVQVRRVQKQGNTIRVELELRTNGKKENPTVEVERQGNTWTVKRITRT | -0.674 kcal/mol
EEKRQVKQVAKEKLLEQSPNSKVQVRRVQKQGNTIRVELELRTNGKKENLTVEVERQGNTWTVKRITRT | 2.84 kcal/mol
EEKRQVKQVAKEKLLEQSPNSKVQVRRVQKQGNTIRVELELRTNGKKENVTVEVERQGNTWTVKRITRT | 3.56 kcal/mol
EEKRQVKQVAKEKLLEQSPNSKVQVRRVQKQGNTIRVELELRTNGKKENATVEVERQGNTWTVKRITRT | 2.98 kcal/mol
EEKRQVKQVAKEKLLEQSPNSKVQVRRVQKQGNTIRVELELRTNGKKENMTVEVERQGNTWTVKRITRT | 2.58 kcal/mol
EEKRQVKQVAKEKLLEQSPNSKVQVRRVQKQGNTIRVELELRTNGKKENRTVEVERQGNTWTVKRITRT | 1.2 kcal/mol
EEKRQVKQVAKEKLLEQSPNSKVQVRRVQKQGNTIRVELELRTNGKKENHTVEVERQGNTWTVKRITRT | 2.1 kcal/mol
EEKRQVKQVAKEKLLEQSPNSKVQVRRVQKQGNTIRVELELRTNGKKENITVEVERQGNTWTVKRITRT | 3.17 kcal/mol
EEKRQVKQVAKEKLLEQSPNSKVQVRRVQKQGNTIRVELELRTNGKKENCTVEVERQGNTWTVKRITRT | 2.79 kcal/mol
EEKRQVKQVAKEKLLEQSPNSKVQVRRVQKQGNTIRVELELRTNGKKENSTVEVERQGNTWTVKRITRT | 1.25 kcal/mol
EEKRQVKQVAKEKLLEQSPNSKVQVRRVQKQGNTIRVELELRTNGKKENWTVEVERQGNTWTVKRITRT | 4.12 kcal/mol
EEKRQVKQVAKEKLLEQSPNSKVQVRRVQKQGNTIRVELELRTNGKKENETVEVERQGNTWTVKRITRT | -0.081 kcal/mol
EEKRQVKQVAKEKLLEQSPNSKVQVRRVQKQGNTIRVELELRTNGKKENKTVEVERQGNTWTVKRITRT | 1.24 kcal/mol
EEKRQVKQVAKEKLLEQSPNSKVQVRRVQKQGNTIRVELELRTNGKKENFTVEVERQGNTWTVKRITRT | 3.74 kcal/mol
EEKRQVKQVAKEKLLEQSPNSKVQVRRVQKQGNTIRVELELRTNGKKENNTVEVERQGNTWTVKRITRT | 0.663 kcal/mol
EEKRQVKQVAKEKLLEQSPNSKVQVRRVQKQGNTIRVELELRTNGKKENQTVEVERQGNTWTVKRITRT | 1.33 kcal/mol
EEKRQVKQVAKEKLLEQSPNSKVQVRRVQKQGNTIRVELELRTNGKKENGTVEVERQGNTWTVKRITRT | 0.705 kcal/mol
EEKRQVKQVAKEKLLEQSPNSKVQVRRVQKQGNTIRVELELRTNGKKENTTVEVERQGNTWTVKRITRT | 1.47 kcal/mol

Source: the MegaScale stability set (Tsuboyama et al. 2023)
